Measurements published in IntAct's records for PubMed 15047893.

B1: Serine/threonine-protein kinase TOUSLED (Arabidopsis thaliana (Mouse-ear cress)), Q39238 (parent)
chain: MSDDMVLHFSSNSSNQSDHSLPDKIAKLEARLTGKTPSSAKPPQQQQQQQQQVSLWSSASAAVKVVTSTPPGLSETSISDSDDENTGDFLIRANTKKRQKVQESNNFSVVDHVEPQEAAYDGRKNDAESKTGLDVSKKKQGRGRASSTGRGRGSKTNNDVTKSQFVVAPVSAASQLDASDQKDFRPDGQLRNGECSLQDEDLKSLRAKIAMLEEELRKSRQDSSEYHHLVRNLENEVKDLKDQEQQGKQKTTKVISDLLISVSKTERQEARTKVRNESLRLGSVGVLRTGTIIAETWEDGQMLKDLNAQLRQLLETKEAIERQRKLLKKRQNGDKNDGTDTESGAQEEDIIPDEVYKSRLTSIKREEEAVLRERERYTLEKGLLMREMKRIRDEDGSRFNHFPVLNSRYALLNLLGKGGFSEVYKAYDLVDHRYVACKLHGLNAQWSEEKKQSYIRHANRECEIHKSLVHHHIVRLWDKFHIDMHTFCTVLEYCSGKDLDAVLKATSNLPEKEARIIIVQIVQGLVYLNKKSQKIIHYDLKPGNVLFDEFGVAKVTDFGLSKIVEDNVGSQGMELTSQGAGTYWYLPPECFELNKTPMISSKVDVWSVGVLFYQMLFGKRPFGHDQSQERILREDTIIKAKKVEFPVTRPAISNEAKDLIRRCLTYNQEDRPDVLTMAQDPYLAYSKK
partner: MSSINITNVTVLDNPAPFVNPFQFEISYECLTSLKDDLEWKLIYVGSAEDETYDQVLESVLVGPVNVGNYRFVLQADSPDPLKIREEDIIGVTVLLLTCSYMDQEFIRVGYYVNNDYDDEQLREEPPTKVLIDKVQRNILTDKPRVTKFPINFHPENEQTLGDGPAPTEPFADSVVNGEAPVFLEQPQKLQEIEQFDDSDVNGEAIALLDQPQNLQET
B2: Serine/threonine-protein kinase TOUSLED (Arabidopsis thaliana (Mouse-ear cress)), Q39238 (parent)
chain: B1 chain
partner: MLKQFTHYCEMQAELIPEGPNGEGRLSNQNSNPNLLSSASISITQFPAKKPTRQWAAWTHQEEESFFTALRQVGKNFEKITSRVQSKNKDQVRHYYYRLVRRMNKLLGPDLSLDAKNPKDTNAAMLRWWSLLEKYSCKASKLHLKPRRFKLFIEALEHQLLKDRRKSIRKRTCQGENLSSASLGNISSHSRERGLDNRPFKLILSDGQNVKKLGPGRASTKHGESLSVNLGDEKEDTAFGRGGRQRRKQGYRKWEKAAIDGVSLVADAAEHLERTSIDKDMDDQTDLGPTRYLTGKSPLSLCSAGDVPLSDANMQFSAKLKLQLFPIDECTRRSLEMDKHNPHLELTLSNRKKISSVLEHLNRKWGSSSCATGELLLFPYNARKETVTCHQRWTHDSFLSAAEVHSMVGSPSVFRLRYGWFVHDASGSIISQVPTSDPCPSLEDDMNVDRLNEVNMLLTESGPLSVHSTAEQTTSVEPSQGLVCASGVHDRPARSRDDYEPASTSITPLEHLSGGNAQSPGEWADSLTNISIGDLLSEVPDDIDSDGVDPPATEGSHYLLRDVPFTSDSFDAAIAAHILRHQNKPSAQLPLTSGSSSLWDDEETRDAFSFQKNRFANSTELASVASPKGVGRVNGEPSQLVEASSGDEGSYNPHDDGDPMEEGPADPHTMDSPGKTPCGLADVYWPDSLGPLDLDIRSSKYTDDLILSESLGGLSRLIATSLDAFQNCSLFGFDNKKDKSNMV

Variants of: B1
Conditions: with asf1b_arath ASF1B

Row | effect of a mutation on the interaction | Variant
1 | disrupting interaction | K438E

Variants of: B2
Conditions: with tki1_arath TKI1, Q8LJT8

Row | effect of a mutation on the interaction | Variant
2 | disrupting interaction | K438E
